Experimental data published in US20190135872A1.

How the values were obtained:
[1] = molecular target: BG505 NFL-CC2 (HIV-1 BG505 (clade A)); test: ELISA, His-captured trimer
[2] = molecular target: JRFL NFL-CC2 (HIV-1 JRFL (clade B)); test: ELISA, His-captured trimer
[3] = molecular target: BG505 NFL-L555P (HIV-1 BG505 (clade A)); test: ELISA, His-captured trimer
[4] = molecular target: BG505 NFL-TD+CC2-D4K_I559P w/rEK (HIV-1 BG505 (clade A)); test: ELISA, His-captured trimer
[5] = molecular target: 16055 NFL-TD+CC2-D4K_L555P w/rEK (HIV-1 16055 (clade C)); test: ELISA, His-captured trimer
[6] = molecular target: 16055 NFL-TD+CC2-D4K_I559P w/rEK (HIV-1 16055 (clade C)); test: ELISA, His-captured trimer
[7] = molecular target: 16055 NFL-TD+CC2-D4K_I559P (HIV-1 16055 (clade C)); test: ELISA, His-captured trimer
[8] = molecular target: 16055 NFL-CC2 (HIV-1 16055 (clade C)); test: ELISA, His-captured trimer
[9] = molecular target: 16055 NFL-Q563P (HIV-1 16055 (clade C)); test: ELISA, His-captured trimer
[10] = molecular target: BG505 NFL-TD+CC2-D4K_L555P w/rEK (HIV-1 BG505 (clade A)); test: ELISA, His-captured trimer
[11] = molecular target: 16055 NFL-TD+CC2-D4K_L555P (HIV-1 16055 (clade C)); test: ELISA, His-captured trimer
[12] = molecular target: BG505 NFL (I559P) parental (HIV-1 BG505 (clade A)); test: ELISA, His-captured trimer
[13] = molecular target: BG505 NFL-TD+CC2-D4K_L555P (HIV-1 BG505 (clade A)); test: ELISA, His-captured trimer
[14] = molecular target: BG505 NFL-TD+CC2-D4K_I559P (HIV-1 BG505 (clade A)); test: ELISA, His-captured trimer
[15] = molecular target: 16055 NFL-L555P (HIV-1 16055 (clade C)); test: ELISA, His-captured trimer
[16] = molecular target: BG505 NFL-CC2 (HIV-1 BG505 (clade A)); test: BLI, IgG captured, trimer as analyte
[17] = molecular target: BG505 NFL-Q562P (HIV-1 BG505 (clade A)); test: BLI, IgG captured, trimer as analyte
[18] = molecular target: BG505 NFL-Q563P (HIV-1 BG505 (clade A)); test: BLI, IgG captured, trimer as analyte
[19] = molecular target: BG505 NFL-L555P (HIV-1 BG505 (clade A)); test: BLI, IgG captured, trimer as analyte
[20] = molecular target: 16055 NFL-Q562P (HIV-1 16055 (clade C)); test: BLI, IgG captured, trimer as analyte
[21] = molecular target: 16055 NFL-TD+CC2-D4K_I559P (HIV-1 16055 (clade C)); test: BLI, IgG captured, trimer as analyte
[22] = molecular target: BG505 NFL-S553P (HIV-1 BG505 (clade A)); test: BLI, IgG captured, trimer as analyte
[23] = molecular target: 16055 NFL-CC2 (HIV-1 16055 (clade C)); test: BLI, IgG captured, trimer as analyte
[24] = molecular target: 16055 NFL-Q563P (HIV-1 16055 (clade C)); test: BLI, IgG captured, trimer as analyte
[25] = molecular target: 16055 NFL-TD+CC2-D4K_L555P (HIV-1 16055 (clade C)); test: BLI, IgG captured, trimer as analyte
[26] = molecular target: BG505 NFL (I559P) parental (HIV-1 BG505 (clade A)); test: BLI, IgG captured, trimer as analyte
[27] = molecular target: BG505 NFL-TD+CC2-D4K_L555P (HIV-1 BG505 (clade A)); test: BLI, IgG captured, trimer as analyte
[28] = molecular target: BG505 NFL-TD+CC2-D4K_I559P (HIV-1 BG505 (clade A)); test: BLI, IgG captured, trimer as analyte
[29] = molecular target: BG505 NFL-N554P (HIV-1 BG505 (clade A)); test: BLI, IgG captured, trimer as analyte
[30] = molecular target: 16055 NFL-L555P (HIV-1 16055 (clade C)); test: BLI, IgG captured, trimer as analyte
[31] = molecular target: 16055 NFL (I559P) parental (HIV-1 16055 (clade C)); test: ELISA, His-captured trimer

Substance: PG16 (antibody)
- EC50 [1]: 0.143 µg/mL
- EC50 [2]: 0.216 µg/mL
- EC50 [3]: 0.101 µg/mL
- EC50 [4]: 0.336 µg/mL
- EC50 [5]: 0.122 µg/mL
- EC50 [6]: 0.19 µg/mL
- EC50 [7]: 0.123 µg/mL
- EC50 [8]: 0.089 µg/mL
- EC50 [9]: 0.102 µg/mL
- EC50 [10]: 0.307 µg/mL
- EC50 [11]: 0.115 µg/mL
- EC50 [12]: 0.144 µg/mL
- EC50 [13]: 0.215 µg/mL
- EC50 [14]: 0.206 µg/mL
- EC50 [15]: 0.121 µg/mL
- Kd [16]: 43 nM
- koff [16]: 0.0033 s⁻¹
- kon [16]: 78000 M⁻¹ s⁻¹
- Kd [17]: 15 nM
- Kd [18]: 12 nM
- Kd [19]: 7.8 nM
- Kd [20]: 2.8 nM
- koff [20]: 0.0005 s⁻¹
- kon [20]: 170000 M⁻¹ s⁻¹
- Kd [21]: 23 nM
- koff [21]: 0.001 s⁻¹
- kon [21]: 43000 M⁻¹ s⁻¹
- Kd [22]: 7.2 nM
- Kd [23]: 15 nM
- koff [23]: 0.0009 s⁻¹
- kon [23]: 61000 M⁻¹ s⁻¹
- Kd [24]: 1.7 nM
- koff [24]: 0.0003 s⁻¹
- kon [24]: 190000 M⁻¹ s⁻¹
- Kd [25]: 16 nM
- koff [25]: 0.0007 s⁻¹
- kon [25]: 43000 M⁻¹ s⁻¹
- Kd [26]: 15 nM
- Kd [27]: 70 nM
- koff [27]: 0.0057 s⁻¹
- kon [27]: 81000 M⁻¹ s⁻¹
- Kd [28]: 59 nM
- koff [28]: 0.0048 s⁻¹
- kon [28]: 81000 M⁻¹ s⁻¹
- Kd [29]: 14 nM
- Kd [30]: 6.9 nM
- koff [30]: 0.0009 s⁻¹
- kon [30]: 130000 M⁻¹ s⁻¹

Substance: VRC34 (antibody)
- EC50 [1]: 0.457 µg/mL
- EC50 [2]: 1.01 µg/mL
- EC50 [3]: 0.017 µg/mL
- EC50 [4]: 0.037 µg/mL
- EC50 [5]: 0.032 µg/mL
- EC50 [6]: 0.034 µg/mL
- EC50 [8]: 0.434 µg/mL
- EC50 [10]: 0.035 µg/mL
- EC50 [12]: 0.464 µg/mL
- EC50 [13]: 2.43 µg/mL
- EC50 [14]: 0.072 µg/mL
- EC50 [31]: 0.692 µg/mL
- Kd [16]: 1.3 nM
- koff [16]: 4e-05 s⁻¹
- kon [16]: 27000 M⁻¹ s⁻¹
- Kd [21]: 92 nM
- koff [21]: 0.0038 s⁻¹
- kon [21]: 41000 M⁻¹ s⁻¹
- Kd [23]: 63 nM
- koff [23]: 0.0027 s⁻¹
- kon [23]: 43000 M⁻¹ s⁻¹
- Kd [25]: 75 nM
- koff [25]: 0.0038 s⁻¹
- kon [25]: 50000 M⁻¹ s⁻¹
- Kd [27]: 44 nM
- koff [27]: 0.002 s⁻¹
- kon [27]: 44000 M⁻¹ s⁻¹
- Kd [28]: 12 nM
- koff [28]: 0.0005 s⁻¹
- kon [28]: 43000 M⁻¹ s⁻¹

Substance: PGT128 (antibody)
- EC50 [1]: 0.035 µg/mL
- EC50 [2]: 0.04 µg/mL
- EC50 [3]: 0.021 µg/mL
- EC50 [4]: 0.036 µg/mL
- EC50 [5]: 0.071 µg/mL
- EC50 [6]: 0.08 µg/mL
- EC50 [7]: 0.055 µg/mL
- EC50 [8]: 0.135 µg/mL
- EC50 [9]: 0.068 µg/mL
- EC50 [10]: 0.037 µg/mL
- EC50 [11]: 0.05 µg/mL
- EC50 [12]: 0.039 µg/mL
- EC50 [13]: 0.041 µg/mL
- EC50 [14]: 0.036 µg/mL
- EC50 [15]: 0.056 µg/mL

Substance: PGT151 (antibody)
- EC50 [1]: 0.059 µg/mL
- EC50 [2]: 0.139 µg/mL
- EC50 [3]: 0.058 µg/mL
- EC50 [4]: 0.091 µg/mL
- EC50 [5]: 0.056 µg/mL
- EC50 [6]: 0.041 µg/mL
- EC50 [9]: 0.047 µg/mL
- EC50 [10]: 0.085 µg/mL
- EC50 [12]: 0.062 µg/mL
- EC50 [13]: 0.073 µg/mL
- EC50 [14]: 0.065 µg/mL
- EC50 [15]: 0.048 µg/mL
- Kd [16]: 1.9 nM
- koff [16]: 0.0006 s⁻¹
- kon [16]: 290000 M⁻¹ s⁻¹
- Kd [17]: 1.9 nM
- Kd [18]: 1.7 nM
- Kd [19]: 1.4 nM
- Kd [20]: 9.2 nM
- koff [20]: 0.0016 s⁻¹
- kon [20]: 180000 M⁻¹ s⁻¹
- Kd [21]: 8.7 nM
- koff [21]: 0.0069 s⁻¹
- kon [21]: 790000 M⁻¹ s⁻¹
- Kd [22]: 3.3 nM
- Kd [23]: 21 nM
- koff [23]: 0.0053 s⁻¹
- kon [23]: 250000 M⁻¹ s⁻¹
- Kd [24]: 8.9 nM
- koff [24]: 0.0016 s⁻¹
- kon [24]: 180000 M⁻¹ s⁻¹
- Kd [25]: 13 nM
- koff [25]: 0.0055 s⁻¹
- kon [25]: 45000 M⁻¹ s⁻¹
- Kd [26]: 5.5 nM
- Kd [27]: 3.7 nM
- koff [27]: 0.0014 s⁻¹
- kon [27]: 370000 M⁻¹ s⁻¹
- Kd [28]: 2.3 nM
- koff [28]: 0.0008 s⁻¹
- kon [28]: 340000 M⁻¹ s⁻¹
- Kd [29]: 1.4 nM
- Kd [30]: 5.7 nM
- koff [30]: 0.0008 s⁻¹
- kon [30]: 150000 M⁻¹ s⁻¹

Substance: PGDM1400 (antibody)
- EC50 [1]: 0.018 µg/mL
- EC50 [2]: 0.2 µg/mL
- EC50 [3]: 0.02 µg/mL
- EC50 [4]: 0.038 µg/mL
- EC50 [5]: 0.025 µg/mL
- EC50 [6]: 0.03 µg/mL
- EC50 [7]: 0.025 µg/mL
- EC50 [8]: 0.018 µg/mL
- EC50 [9]: 0.016 µg/mL
- EC50 [10]: 0.04 µg/mL
- EC50 [11]: 0.021 µg/mL
- EC50 [12]: 0.039 µg/mL
- EC50 [13]: 0.042 µg/mL
- EC50 [14]: 0.038 µg/mL
- EC50 [15]: 0.019 µg/mL
- Kd [16]: 24 nM
- koff [16]: 0.0018 s⁻¹
- kon [16]: 76000 M⁻¹ s⁻¹
- Kd [17]: 13 nM
- Kd [18]: 5 nM
- Kd [19]: 5.1 nM
- Kd [20]: 1.4 nM
- koff [20]: 0.0003 s⁻¹
- kon [20]: 230000 M⁻¹ s⁻¹
- Kd [21]: 21 nM
- koff [21]: 0.0021 s⁻¹
- kon [21]: 98000 M⁻¹ s⁻¹
- Kd [22]: 11 nM
- Kd [23]: 14 nM
- koff [23]: 0.0016 s⁻¹
- kon [23]: 110000 M⁻¹ s⁻¹
- Kd [24]: 1.3 nM
- koff [24]: 0.0004 s⁻¹
- kon [24]: 300000 M⁻¹ s⁻¹
- Kd [25]: 13 nM
- koff [25]: 0.0016 s⁻¹
- kon [25]: 120000 M⁻¹ s⁻¹
- Kd [26]: 11 nM
- Kd [27]: 23 nM
- koff [27]: 0.002 s⁻¹
- kon [27]: 88000 M⁻¹ s⁻¹
- Kd [28]: 18 nM
- koff [28]: 0.0016 s⁻¹
- kon [28]: 88000 M⁻¹ s⁻¹
- Kd [29]: 2.5 nM
- Kd [30]: 2.3 nM
- koff [30]: 0.0004 s⁻¹
- kon [30]: 200000 M⁻¹ s⁻¹
